What was measured:
[1] = test system: AF9-YEATS E57A (human); assay: MST; settings: NCP plate assay: 10 mM Tris-HCl pH 7.5, 150 mM NaCl, 25 C, 1 h, 5 pmol NCP, 25 pmol protein, MST buffer not in material
[2] = test system: AF9-YEATS (human); assay: MST; settings: NCP plate assay: 10 mM Tris-HCl pH 7.5, 150 mM NaCl, 25 C, 1 h, 5 pmol NCP, 25 pmol protein, MST buffer not in material
[3] = target: unmodified nucleosome core particle (NCP) (human) (UniProt P04908); assay: MST; YEATS domain labelled with a His-tag labeling kit; 10 mM Hepes-NaOH pH 7.4, 150 mM NaCl; room temperature; Monolith NT.115; fitted to the Hill equation, K1/2 = half-saturation concentration; biological triplicate
[4] = test system: GAS41-YEATS (human); assay: MST; settings: NCP plate assay: 10 mM Tris-HCl pH 7.5, 150 mM NaCl, 25 C, 1 h, 5 pmol NCP, 25 pmol protein; MST buffer not in material
[5] = test system: YEATS2-YEATS (human); assay: MST; settings: NCP plate assay: 10 mM Tris-HCl pH 7.5, 150 mM NaCl, 25 C, 1 h, 5 pmol NCP, 25 pmol protein; MST buffer not in material
[6] = target: H4K5/K8-diacetylated NCP (human) (UniProt P04908); assay: MST; YEATS domain labelled with a His-tag labeling kit; 10 mM Hepes-NaOH pH 7.4, 150 mM NaCl; room temperature; Monolith NT.115; fitted to the Hill equation, K1/2 = half-saturation concentration; biological triplicate
[7] = target: H4K8/K12-diacetylated NCP (human) (UniProt P04908); assay: as above
[8] = target: H4K5/K8/K12/K16-tetra-acetylated NCP (human) (UniProt P04908); assay: as above
[9] = target: H4K5-acetylated NCP (human) (UniProt P04908); assay: as above
[10] = target: H3K9-acetylated NCP (human) (UniProt P04908); assay: as above
[11] = target: H4K12-acetylated NCP (human) (UniProt P04908); assay: as above
[12] = target: H4K8-acetylated NCP (human) (UniProt P04908); assay: as above
[13] = histone H4K5ac/K8ac/K12ac/K16ac

AF9-YEATS domain, polyhistidine-tagged (microscale thermophoresis), sequence (P42568 1-138): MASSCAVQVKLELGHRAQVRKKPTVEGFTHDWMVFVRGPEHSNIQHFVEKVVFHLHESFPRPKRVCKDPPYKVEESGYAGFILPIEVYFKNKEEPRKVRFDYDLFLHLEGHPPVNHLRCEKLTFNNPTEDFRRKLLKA

H4K5ac/K8ac/K12ac/K16ac NCP
binding signal (fold K1/2 increase vs WT) [1, 13]: 1.5 | K half [2, 13]: 25 nM

H4K8ac NCP
K half ([2]; histone H4K8ac): 75 nM

GAS41-YEATS domain, polyhistidine-tagged (microscale thermophoresis) (from UniProt O95619 15-159) (domain or fragment)
K1/2 (half-saturation concentration) [3]: 1.4 µM

H4K12ac NCP
K half ([2]; histone H4K12ac): 140 nM

YEATS2-YEATS domain, polyhistidine-tagged (microscale thermophoresis) (from UniProt Q9ULM3 200-349) (domain or fragment)
K1/2 (half-saturation concentration) [3]: 2.6 µM

H3K9ac NCP
K half ([2]; histone H3K9ac): 16 nM

nucleosome-free 147-bp dsDNA
K half [4]: > 50000 nM | K half [2]: 12000 nM | K half [5]: 8.2 µM

H4K8ac/K12ac NCP
binding signal (fold K1/2 increase vs WT) ([1]; histone H4K8ac/K12ac): 1.3 | K half ([2]; histone H4K8ac/K12ac): 41 nM

AF9-YEATS E57A mutant (from UniProt P42568 1-138) (domain or fragment)
fold increase in K1/2 against the WT [6]: 1.8 fold | fold increase in K1/2 against the WT [7]: 1.3 fold | fold increase in K1/2 against the WT [8]: 1.5 fold

H4K5ac/K8ac NCP
binding signal (fold K1/2 increase vs WT) ([1]; histone H4K5ac/K8ac): 1.8 | K half ([2]; histone H4K5ac/K8ac): 30 nM

unmodified NCP
K half [4]: 1400 nM | K half [2]: 140 nM | K half [5]: 2.6 µM

H4K5ac NCP
K half ([2]; histone H4K5ac): 120 nM

AF9-YEATS domain, polyhistidine-tagged (microscale thermophoresis) (from UniProt P42568 1-138) (domain or fragment)
K1/2 (half-saturation concentration) [9]: 120 nM | K1/2 (half-saturation concentration) [3]: 0.14 µM | K1/2 (half-saturation concentration) [6]: 30 nM | K1/2 (half-saturation concentration) [10]: 16 nM | K1/2 (half-saturation concentration) [7]: 41 nM | K1/2 (half-saturation concentration) [11]: 140 nM | K1/2 (half-saturation concentration) [12]: 75 nM | K1/2 (half-saturation concentration) [8]: 25 nM

Source: article PMC9293779, “Elucidation of binding preferences of YEATS domains to site-specific acetylated nucleosome core particles” (The Journal of Biological Chemistry, 2022)
